The values below come from patent JP2024051908A (dated 2024).

Test in all cases: cell-based or functional assay
Experiment [1] has as its target SARS-CoV-2 オミクロンBA.1.1変異株のスパイクタンパク質 (authentic virus) (SARS-CoV-2 Omicron BA.1.1).
Experiment [2] deals with SARS-CoV-2 オミクロンBA.5変異株のスパイクタンパク質 (authentic virus) (SARS-CoV-2 Omicron BA.5).
The target in experiment [3] is SARS-CoV-2 オミクロンBA.1変異株のスパイクタンパク質 (authentic virus) (SARS-CoV-2 Omicron BA.1).
For experiment [4], the target named is SARS-CoV-2 D614G変異株のスパイクタンパク質 (authentic virus) (SARS-CoV-2 D614G, UniProt P0DTC2 14-1273).
Experiment [5] deals with SARS-CoV-2 Delta変異株のスパイクタンパク質 (authentic virus) (SARS-CoV-2 Delta).
Experiment [6] concerns the target SARS-CoV-2 オミクロンBA.2変異株のスパイクタンパク質 (authentic virus) (SARS-CoV-2 Omicron BA.2).

B1: MO1 (antibody, V domains shown)
VH: EVQLVESGGGMVQPGRSLRLSCAASGFTFDDYAMHWVRQIPGKGLEWVSGISWNSGDIGYADSVKGRFTISRDNAKNSLHLQMNSLRAEDTALYYCAKDKTYDSPGYFLNSFDYWGQGTLVTVSS
VL: DIQMTQSPSSLSASVGDRVTITCRASQGISSYLVWYQQKPGKAPKFLIYAASTLQSGVPSRFSGSGSGTDFTLTISSLQPEDFATYYCQQLYSYPITFGQGTRLEIK
In the case of B1, the “IC50, プラーク減少中和試験 (PRNT)” value in experiment [1] was determined as 0.0106 µg/mL; in experiment [2], 0.0157 µg/mL; in experiment [3], 0.004 µg/mL; in experiment [4], 0.0236 µg/mL; in experiment [5], 0.0158 µg/mL; in experiment [6], 0.0203 µg/mL.

B2: MO2 (antibody, V domains shown)
VH: EVQLVESGGGLVKPGGSLSLSCVASGFTFSDYRMSWIRQAPGKGLEWVSYISSSSGYKDYADSVKGRFTISRDNAKNSLSLQMNSLRVEDTAVYYCARDVGVVTATPGYWGQGVPVSVSS
VL: DIVMTQSPATLSVSPGERATLSCRASQSVGSNLAWYQQKPGQAPRLLIYDTSTRATGVPARFSGSGSGTDFTLTISSLQSEDFAVYLCHQYDQWPPAFGPGTRVDIK
With B2, the “IC50, プラーク減少中和試験 (PRNT)” value in experiment [1] is 0.036 µg/mL; in experiment [3], 0.0177 µg/mL; in experiment [4], 0.0658 µg/mL; in experiment [5] it was 0.0882 µg/mL; in experiment [6], 0.151 µg/mL.
